According to US11046988B2, “Process for the modification of a glycoprotein using a β-(1,4)-N-acetylgalactosaminyl transferase or a mutant thereof” (Synaffix B.V., priority 2014, dated 2021):

Experiment: Coupled glycosyltransferase assay (R&D Systems Glycosyltransferase Activity Kit, malachite green, 620 nm): transfer of F2-GalNAz to GlcNAc
Assay type: biochemical
Design: Data from the determination of the specific activity: unit not given here
Conditions: for Data from the determination of the specific activity: GlcNAc 20 mM, UDP-F2-GalNAz 500 μM, 20 min, room temperature, plate read at 620 nm; for specific activity: UDP-F2-GalNAz 500 μM to GlcNAc 20 mM, 5 mM MgCl2 and 5 mM MnCl2, pH 7.5, linear regression; for transferase activity compared with GalT(Y289L): transfer of F2-GalNAz from UDP-F2-GalNAz (18) to GlcNAc, FIG. 7 / FIG. 8
Source text: In brief, the glycosyltransferase kit determines the activity of a particular glycosyltransferase by means of a coupled assay that detects the release of liberated UDP upon transfer of the donor sugar (from the sugar-UDP nucleotide) to an acceptor sugar. In more detail, the UDP that is liberated upon transfer of sugar is hydrolyzed by a particular enzyme (CD39L3/rectonucleoside triphosphate diphosphohydrolase-3, also known as NTPDase-3) thereby generating UMP and one equivalent of phosphate (Pi). The latter phosphate in turn is detected by malachite green, which is also added to the mixture. A green color develops in proportion to the amount of inorganic phosphate released and the absorbance of the color at 620 nm is measured as a direct measure of the activity of the glycosyltransferase. In the present case, transfer of F2-GalNAz from the UDP-substrate to GlcNAc on the protein is accompanied by release of UDP, which is hydrolyzed by CD39L3 and the generated phosphate. Preferably, the derived or wild type β-(1,4)-GalNAcT enzyme used in the process according to the invention has at least 30%, 33%, 50%, 75%, 100%, 150%, 200%, or more preferably at least 300% of the UDP-F2-GalNAz transfer activity as compared to the UDP-F2-GalNAz transfer activity of the β-(1,4)-galactosyltransferase mutant enzyme Bos taurus GalT-Y289L (SEQ ID NO: 1), wherein the transfer activity is assessed using the R&D Systems Glycosyltransferase Activity Kit and applying the conditions as indicated in detail in Example 18 and using equal amounts of the enzyme to be tested and β-(1,4)-galactosyltransferase mutant enzyme Bos taurus GalT-Y289L (SEQ ID NO: 1).
Specific activity of enzymes was determined by a coupled glycosyltransferase procedure as described by Wu et al. in Glycobiology 2010, 21, 723-733, incorporated by reference, and commercially available as a kit from R&D system.
In short, a glycosyltransferase reaction was carried out in 50 μL of reaction buffer (25 mM Tris, 150 mM NaCl, 5 mM MgCl2 and 5 mM MnCl2, pH 7.5) in a 96-well plate at room temperature for 20 min. To determine the kinetic parameters of a glycosyltransferase, multiple reactions with varying amounts of the enzyme were carried out simultaneously (0.01, 0.02, 0.04, 0.06, 0.08, 0.10 and 0.12 μg of enzyme) in the presence of fixed amounts of all other components (GlcNAc: 20 mM, UDP-F2-GalNAz: 500 μM), including the coupling phosphatase 1 (ENTPD3/CD39L3) (2.5 μL of 20 ng/μL solution). A well containing all components except for the enzyme served as a blank control. The reactions were initiated by adding the substrates and phosphatase to the enzyme and terminated by the addition of 30 μL of Malachite reagent A and 100 μL of water to each well. The color was developed by the addition of 30 μL of Malachite reagent B to each well followed by gentle mixing and incubation at room temperature for 20 min. Following color development, the plate was read at 620 nm with a multi-well plate reader. A phosphate standard curve was also performed to determine the conversion factor between the absorbance and the inorganic phosphate contents. Preparation of UDP-F2-GalNAz is described in Example 13.
The specific activity of the GalNAcTs described herein were compared to GalT(Y289L), an enzyme known to transfer UDP-GalNAz as previously disclosed in WO 2007/095506 and WO 2008/029281 (both Invitrogen Corporation).
A graph depicting the conversion (in pmol/min/m) plotted against the amount of enzyme is shown in FIG. 7 (for Table 1) and FIG. 8 (for Table 2). From these plots specific activities were calculated by linear regression. […]

Molecule | Data from the determination of the specific activity (0.01 μg enzyme) | Data from the determination of the specific activity (0.02 μg enzyme) | Data from the determination of the specific activity (0.04 μg enzyme) | Data from the determination of the specific activity (0.06 μg enzyme) | Data from the determination of the specific activity (0.08 μg enzyme) | Data from the determination of the specific activity (0.1 μg enzyme) | Data from the determination of the specific activity (0.12 μg enzyme) | specific activity | transferase activity compared with GalT(Y289L)
CeGalNAcT(I257A): truncated C. elegans GalNAcT mutant, isoleucine 257 to alanine, SEQ ID NO: 12 | 0.009 | 0.032 | 0.049 | 0.078 | 0.097 | 0.119 | 0.152 | 240 pmol/min/µg | significantly higher
CeGalNAcT(I257L): truncated C. elegans GalNAcT mutant, isoleucine 257 to leucine, SEQ ID NO: 10 | 0.02 | 0.038 | 0.081 | 0.136 | 0.153 | 0.205 | 0.245 | 381 pmol/min/µg | significantly higher
CeGalNAcT-His: CeGalNAcT(30-383) with C-terminal His6-tag, SEQ ID NO: 14 | 0.024 | 0.044 | 0.129 | 0.161 | 0.191 | 0.226 | 0.285 | 332 pmol/min/µg | significantly higher
GalT(Y289L): β-(1,4)-galactosyltransferase mutant enzyme Bos taurus GalT-Y289L (SEQ ID NO: 1), prior-art comparator (protein, Bos Taurus GalT Y289L mutant) MKFREPLLGGSAAMPGASLQRACRLLVAVCALHLGVTLVYYLAGRDLRRLPQLVGVHPPLQGSSHGAAAIGQPSGELRLRGVAPPPPLQNSSKPRSRAPSNLDAYSHPGPGPGPGSNLTSAPVPSTTTRSLTACPEESPLLVGPMLIEFNIPVDLKLIEQQNPKVKLGGRYTPMDCISPHKVAIIILFRNRQEHLKYWLYYLHPMVQRQQLDYGIYVINQAGESMFNRAKLLNVGFKEALKDYDYNCFVFSDVDLIPMNDHNTYRCFSQPRHISVAMDKFGFSLPYVQLFGGVSALSKQQFLSINGFPNNYWGWGGEDDDIYNRLAFRGMSVSRPNAVIGKCRMIRHSRDKKNEPNPQRFDRIAHTKETMLSDGLNSLTYMVLEVQRYPLYTKITVDIGTPS | 0.005 | 0.011 | 0.013 | 0.02 | 0.027 | 0.034 | 0.039 | 44 pmol/min/µg | –
